Legend:
[1] = tested on: AncSZ; assay: phosphorylation enrichment, bacterial display (enrichment ratio); higher = better substrate or ligand; peptides without Tyr show the background
[2] = target: EPHB1 (UniProt P54762); assay: as above
[3] = target: EPHB2 (UniProt P29323); assay: as above
[4] = target: FGFR1 (UniProt P11362); assay: as above
[5] = target: FGFR3 (UniProt P22607); assay: as above
[6] = tested on: Fer (mouse); assay: as above
[7] = target: Fes (UniProt P07332); assay: as above
[8] = target: Fyn (UniProt P06241); assay: as above
Chain of Fyn (P06241 whole entry, looked up): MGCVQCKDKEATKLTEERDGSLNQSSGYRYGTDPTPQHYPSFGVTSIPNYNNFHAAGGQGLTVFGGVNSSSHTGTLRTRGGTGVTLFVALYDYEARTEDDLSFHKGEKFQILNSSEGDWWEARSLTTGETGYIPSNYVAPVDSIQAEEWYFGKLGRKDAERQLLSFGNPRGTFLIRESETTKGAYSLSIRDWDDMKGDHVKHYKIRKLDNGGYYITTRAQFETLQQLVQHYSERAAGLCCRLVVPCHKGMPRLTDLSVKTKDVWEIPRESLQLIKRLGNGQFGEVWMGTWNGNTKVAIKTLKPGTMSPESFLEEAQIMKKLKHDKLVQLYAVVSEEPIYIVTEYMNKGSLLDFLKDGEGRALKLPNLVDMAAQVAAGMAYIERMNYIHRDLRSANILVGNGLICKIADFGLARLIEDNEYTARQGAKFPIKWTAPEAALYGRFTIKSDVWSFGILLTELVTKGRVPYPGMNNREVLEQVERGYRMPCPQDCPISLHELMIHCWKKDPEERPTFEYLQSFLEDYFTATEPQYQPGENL

[9] = target: Hck (UniProt P08631); assay: as above
[10] = target: Jak2 (UniProt O60674); assay: as above
[11] = target: MERTK (UniProt Q12866); assay: as above
Chain of MERTK (Q12866 whole entry, looked up): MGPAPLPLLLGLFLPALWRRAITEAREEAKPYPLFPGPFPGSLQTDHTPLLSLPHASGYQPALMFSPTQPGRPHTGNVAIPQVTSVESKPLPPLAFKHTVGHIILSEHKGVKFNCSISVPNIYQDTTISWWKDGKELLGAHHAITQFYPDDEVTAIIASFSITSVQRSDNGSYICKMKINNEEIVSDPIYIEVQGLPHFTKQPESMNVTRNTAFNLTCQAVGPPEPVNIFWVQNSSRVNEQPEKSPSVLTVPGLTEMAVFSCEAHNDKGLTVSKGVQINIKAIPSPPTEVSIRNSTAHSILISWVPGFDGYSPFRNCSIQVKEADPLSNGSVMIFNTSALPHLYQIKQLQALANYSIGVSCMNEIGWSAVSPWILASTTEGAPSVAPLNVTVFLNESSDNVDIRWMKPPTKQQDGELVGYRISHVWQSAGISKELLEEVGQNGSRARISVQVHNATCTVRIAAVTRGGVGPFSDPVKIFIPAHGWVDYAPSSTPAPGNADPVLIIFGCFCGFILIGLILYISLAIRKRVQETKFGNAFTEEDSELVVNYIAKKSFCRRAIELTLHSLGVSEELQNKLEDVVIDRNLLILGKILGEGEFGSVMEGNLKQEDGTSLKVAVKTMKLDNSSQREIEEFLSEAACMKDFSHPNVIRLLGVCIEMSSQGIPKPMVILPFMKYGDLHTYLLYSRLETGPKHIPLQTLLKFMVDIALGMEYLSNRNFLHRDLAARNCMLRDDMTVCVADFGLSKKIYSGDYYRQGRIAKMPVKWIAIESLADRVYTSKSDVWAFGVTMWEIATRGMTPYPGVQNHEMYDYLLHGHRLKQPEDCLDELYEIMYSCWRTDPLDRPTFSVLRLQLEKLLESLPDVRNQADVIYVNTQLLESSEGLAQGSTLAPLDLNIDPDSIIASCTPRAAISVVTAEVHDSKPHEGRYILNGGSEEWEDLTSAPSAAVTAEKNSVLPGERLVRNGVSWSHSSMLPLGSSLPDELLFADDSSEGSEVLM

[12] = tested on: c-Abl (mouse); assay: as above
[13] = tested on: c-Src; assay: as above
[14] = target: Grb2 SH2 (UniProt P62993); assay: SH2 binding enrichment of the phosphorylated peptide, bacterial display (enrichment ratio); higher = better substrate or ligand; peptides without Tyr show the background
[15] = target: SHP2-C SH2; assay: as above
[16] = target: c-Src SH2; assay: as above
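Wherever SH2 binding enrichment of the phosphorylated peptide, bacterial display is given: peptide library displayed on the E. coli surface as eCPX fusions, selected cells deep-sequenced, score is each peptide's frequency after selection divided by its frequency in the input.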
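Wherever phosphorylation enrichment, bacterial display is given: 11-residue human phosphosite peptides and single-mutation variants displayed on the E. coli surface, counted by deep sequencing, each peptide's frequency after selection divided by its frequency in the unselected input library; frequency after pTyr selection over input frequency; kinase dosed for 20-30% of maximal phosphorylation in three min.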

Chain of EPHB1 (P54762 whole entry, looked up): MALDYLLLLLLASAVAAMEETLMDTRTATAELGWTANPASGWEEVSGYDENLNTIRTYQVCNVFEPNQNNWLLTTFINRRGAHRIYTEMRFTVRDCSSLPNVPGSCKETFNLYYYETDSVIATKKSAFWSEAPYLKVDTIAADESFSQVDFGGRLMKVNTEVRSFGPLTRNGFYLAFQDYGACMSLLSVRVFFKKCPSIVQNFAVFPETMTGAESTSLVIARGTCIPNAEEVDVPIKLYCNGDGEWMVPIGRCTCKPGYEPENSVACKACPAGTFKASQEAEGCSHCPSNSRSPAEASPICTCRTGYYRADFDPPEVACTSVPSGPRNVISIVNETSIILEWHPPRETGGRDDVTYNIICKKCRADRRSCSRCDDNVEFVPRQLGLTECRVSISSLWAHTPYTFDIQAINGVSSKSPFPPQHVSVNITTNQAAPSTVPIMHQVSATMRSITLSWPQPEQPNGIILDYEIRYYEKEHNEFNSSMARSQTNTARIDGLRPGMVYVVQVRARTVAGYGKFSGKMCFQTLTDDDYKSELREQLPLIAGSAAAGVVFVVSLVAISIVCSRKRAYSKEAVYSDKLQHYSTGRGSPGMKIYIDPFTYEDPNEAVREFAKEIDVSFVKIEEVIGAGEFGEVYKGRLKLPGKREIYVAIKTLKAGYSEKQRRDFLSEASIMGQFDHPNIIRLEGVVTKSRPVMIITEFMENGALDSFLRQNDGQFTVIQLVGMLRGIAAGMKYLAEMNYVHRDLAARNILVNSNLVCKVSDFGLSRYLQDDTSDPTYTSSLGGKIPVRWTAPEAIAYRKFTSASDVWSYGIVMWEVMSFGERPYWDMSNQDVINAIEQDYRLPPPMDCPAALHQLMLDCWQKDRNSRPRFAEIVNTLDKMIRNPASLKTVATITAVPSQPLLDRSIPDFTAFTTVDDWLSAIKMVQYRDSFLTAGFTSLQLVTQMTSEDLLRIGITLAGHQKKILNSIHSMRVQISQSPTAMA
Chain of FGFR3 (P22607 whole entry, looked up): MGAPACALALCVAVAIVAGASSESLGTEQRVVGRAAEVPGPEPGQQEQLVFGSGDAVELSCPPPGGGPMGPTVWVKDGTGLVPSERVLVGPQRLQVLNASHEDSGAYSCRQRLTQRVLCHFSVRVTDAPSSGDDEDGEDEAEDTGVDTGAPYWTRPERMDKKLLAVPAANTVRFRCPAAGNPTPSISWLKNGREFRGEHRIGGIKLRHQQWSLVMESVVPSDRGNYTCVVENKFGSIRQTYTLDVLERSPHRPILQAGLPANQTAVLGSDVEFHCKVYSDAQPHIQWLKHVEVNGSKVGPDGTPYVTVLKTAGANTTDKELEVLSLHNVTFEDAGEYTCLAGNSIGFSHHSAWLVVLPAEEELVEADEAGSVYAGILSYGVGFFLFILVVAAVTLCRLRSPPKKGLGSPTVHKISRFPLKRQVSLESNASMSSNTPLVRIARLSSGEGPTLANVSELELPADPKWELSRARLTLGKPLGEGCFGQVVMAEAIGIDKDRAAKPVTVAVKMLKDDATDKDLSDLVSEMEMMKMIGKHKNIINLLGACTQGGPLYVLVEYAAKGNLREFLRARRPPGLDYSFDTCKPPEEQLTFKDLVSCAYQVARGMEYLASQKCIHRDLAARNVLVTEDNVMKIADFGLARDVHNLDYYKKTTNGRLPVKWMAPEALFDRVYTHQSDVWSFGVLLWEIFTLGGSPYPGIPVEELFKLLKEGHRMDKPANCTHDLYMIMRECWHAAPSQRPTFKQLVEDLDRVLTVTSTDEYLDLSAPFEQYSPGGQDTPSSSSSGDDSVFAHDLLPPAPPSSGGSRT
Chain of Fes (P07332 whole entry, looked up): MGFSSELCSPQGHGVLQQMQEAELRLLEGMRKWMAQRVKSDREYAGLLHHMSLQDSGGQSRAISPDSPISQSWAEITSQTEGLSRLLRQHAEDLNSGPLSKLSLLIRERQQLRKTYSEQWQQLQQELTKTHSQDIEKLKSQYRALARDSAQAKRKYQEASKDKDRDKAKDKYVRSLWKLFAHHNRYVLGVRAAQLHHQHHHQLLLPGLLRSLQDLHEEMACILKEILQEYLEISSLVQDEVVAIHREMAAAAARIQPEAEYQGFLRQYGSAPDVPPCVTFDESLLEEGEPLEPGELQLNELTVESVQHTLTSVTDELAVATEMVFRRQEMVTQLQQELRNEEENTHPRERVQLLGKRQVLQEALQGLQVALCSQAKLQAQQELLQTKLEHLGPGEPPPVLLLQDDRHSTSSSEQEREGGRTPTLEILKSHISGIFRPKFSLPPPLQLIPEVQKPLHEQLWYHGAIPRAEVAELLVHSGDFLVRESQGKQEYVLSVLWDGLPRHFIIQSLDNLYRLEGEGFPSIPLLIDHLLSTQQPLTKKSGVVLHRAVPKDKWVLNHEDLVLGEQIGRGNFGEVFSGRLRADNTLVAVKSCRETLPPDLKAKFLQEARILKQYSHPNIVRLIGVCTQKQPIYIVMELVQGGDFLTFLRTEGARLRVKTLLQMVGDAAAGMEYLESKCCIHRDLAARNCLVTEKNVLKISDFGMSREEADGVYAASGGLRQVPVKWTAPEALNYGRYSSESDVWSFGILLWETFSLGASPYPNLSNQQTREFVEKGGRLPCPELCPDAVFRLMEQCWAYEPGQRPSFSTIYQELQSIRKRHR
Chain of FGFR1 (P11362 whole entry, looked up): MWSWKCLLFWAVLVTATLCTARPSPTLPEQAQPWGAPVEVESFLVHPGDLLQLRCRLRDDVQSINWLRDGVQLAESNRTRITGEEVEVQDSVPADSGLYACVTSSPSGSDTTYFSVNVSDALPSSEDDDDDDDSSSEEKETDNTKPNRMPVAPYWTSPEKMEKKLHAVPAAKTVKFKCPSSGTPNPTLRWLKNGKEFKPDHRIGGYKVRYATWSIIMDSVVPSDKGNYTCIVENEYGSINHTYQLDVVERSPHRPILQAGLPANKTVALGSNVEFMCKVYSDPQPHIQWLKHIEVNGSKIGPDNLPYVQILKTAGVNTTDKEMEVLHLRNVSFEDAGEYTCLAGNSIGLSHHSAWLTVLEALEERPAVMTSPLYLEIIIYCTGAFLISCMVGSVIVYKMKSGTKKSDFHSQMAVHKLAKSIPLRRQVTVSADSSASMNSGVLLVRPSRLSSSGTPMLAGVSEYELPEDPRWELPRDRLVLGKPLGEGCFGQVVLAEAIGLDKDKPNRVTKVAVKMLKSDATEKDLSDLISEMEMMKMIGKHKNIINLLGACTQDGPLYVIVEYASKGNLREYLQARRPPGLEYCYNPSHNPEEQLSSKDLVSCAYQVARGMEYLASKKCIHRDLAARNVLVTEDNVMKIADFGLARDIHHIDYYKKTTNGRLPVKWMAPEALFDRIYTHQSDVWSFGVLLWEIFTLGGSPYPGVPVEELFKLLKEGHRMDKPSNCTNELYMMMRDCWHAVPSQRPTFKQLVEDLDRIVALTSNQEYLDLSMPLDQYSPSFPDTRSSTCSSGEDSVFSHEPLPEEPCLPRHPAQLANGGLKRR

Sequence | phosphorylation enrichment [1] | phosphorylation enrichment [2] | phosphorylation enrichment [3] | phosphorylation enrichment [4] | phosphorylation enrichment [5] | phosphorylation enrichment [6] | phosphorylation enrichment [7] | phosphorylation enrichment [8] | phosphorylation enrichment [9] | phosphorylation enrichment [10] | phosphorylation enrichment [11] | phosphorylation enrichment [12] | phosphorylation enrichment [13] | SH2 binding enrichment [14] | SH2 binding enrichment [15] | SH2 binding enrichment [16]
VHVEVYDPPSP | 1.65 | 0.749 | 0.572 | 0.672 | 0.826 | 0.758 | 1.3 | 0.794 | 0.833 | 1.27 | 0.775 | 0.949 | 0.719 | 0.736 | 0.548 | 0.708
VIEQSYNETWL [SLC2A4_Y56] | 1.17 | 0.567 | 0.645 | 0.621 | 0.827 | 1.25 | 1.23 | 0.558 | 0.512 | 1.1 | 0.436 | 0.803 | 0.572 | 0.713 | 0.68 | 0.535
VIKDKYPKVRY [APTX_Y209_A212V] | 0.448 | 0.414 | 0.437 | 0.441 | 0.449 | 0.402 | 0.667 | 0.365 | 0.466 | 0.693 | 0.35 | 0.577 | 0.487 | 1.19 | 1.16 | 1.05
VKFGAYINDFK [GLB1_Y488_N484K_YF] | 0.839 | 0.596 | 0.572 | 0.466 | 0.879 | 0.406 | 1.02 | 0.431 | 0.523 | 1.05 | 0.412 | 0.737 | 0.468 | 4.55 | 1.06 | 1.3
VKGGAYFPVTV [MCCC2_Y145_YF] | 0.703 | 0.372 | 0.444 | 0.713 | 0.602 | 0.419 | 0.601 | 0.396 | 0.431 | 0.807 | 0.692 | 0.522 | 0.386 | 0.699 | 0.642 | 0.601
VKGGAYYPVTV [MCCC2_Y145] | 0.582 | 0.331 | 0.551 | 5.39 | 3.75 | 0.819 | 0.822 | 0.423 | 0.607 | 2.65 | 4.41 | 0.609 | 0.445 | 0.955 | 0.8 | 0.715
VKPENYRRQDI [VHL_Y175_L178Q] | 0.475 | 0.274 | 0.367 | 0.343 | 0.4 | 0.304 | 0.504 | 0.344 | 0.309 | 0.469 | 0.379 | 0.465 | 0.365 | 0.862 | 0.607 | 0.494
VLTSKYLGGGG [HBA1_Y141_R142L] | 0.382 | 0.292 | 0.326 | 0.448 | 0.308 | 0.264 | 0.461 | 0.275 | 0.32 | 0.444 | 0.347 | 0.375 | 0.334 | 0.824 | 0.695 | 0.456
VMSGPYNLKAL [IL1B_Y140_E141N] | 0.888 | 0.534 | 0.475 | 0.569 | 0.556 | 0.508 | 0.765 | 0.596 | 0.473 | 0.959 | 0.507 | 0.643 | 0.758 | 0.886 | 0.622 | 0.545
VNFGAYINNFK [GLB1_Y488_D491N_YF] | 1.03 | 0.566 | 0.635 | 0.535 | 0.689 | 0.579 | 0.912 | 0.463 | 0.523 | 0.662 | 0.362 | 0.535 | 0.391 | 0.834 | 0.803 | 0.589
VNLVLYLSIAK [FBXO15_Y496] | 1.13 | 0.438 | 0.628 | 0.581 | 0.867 | 0.443 | 1.73 | 0.462 | 0.527 | 1.28 | 0.572 | 1.25 | 0.512 | 0.829 | 0.388 | 0.426
VPANRYDLLCL [FARSB_Y72] | 0.808 | 0.58 | 0.654 | 0.493 | 0.725 | 0.486 | 0.985 | 0.469 | 0.458 | 0.873 | 0.514 | 0.773 | 0.487 | 0.831 | 0.907 | 3.03
VPDANYTSDEE [STK33_Y439] | 1.54 | 0.649 | 0.801 | 0.699 | 0.796 | 0.658 | 1.38 | 0.701 | 0.61 | 1.19 | 0.621 | 2.42 | 0.586 | 0.885 | 1.11 | 0.726
VQSASYLNACL [MCM3AP_Y864] | 0.759 | 0.418 | 0.473 | 0.381 | 0.551 | 0.47 | 0.813 | 0.419 | 0.384 | 0.674 | 0.46 | 0.645 | 0.495 | 1.11 | 0.694 | 0.555
VRKRSYSAGNA [KANK1_Y324] | 0.615 | 0.495 | 0.436 | 0.396 | 0.492 | 0.457 | 0.621 | 0.441 | 0.48 | 0.441 | 0.444 | 0.564 | 0.519 | 0.665 | 0.398 | 0.343
VRSNHYAPEED [TJP1_Y1346_D1347A] | 0.941 | 0.529 | 0.611 | 0.426 | 0.605 | 0.469 | 0.984 | 0.473 | 0.498 | 0.955 | 0.462 | 0.728 | 0.434 | 1 | 0.893 | 0.695
VSSIPYGQPKQ [NEU1_Y251_G248S] | 0.549 | 0.555 | 0.345 | 0.39 | 0.41 | 0.324 | 0.605 | 0.338 | 0.493 | 0.844 | 0.425 | 0.464 | 0.447 | 0.79 | 0.575 | 0.339
VTAVAYRLAEQ [HK1_Y461] | 0.633 | 0.47 | 0.424 | 0.495 | 0.584 | 0.446 | 0.792 | 0.473 | 0.475 | 0.543 | 0.349 | 0.509 | 0.385 | 0.828 | 0.604 | 0.782
VVCKNYAEAKD [ALB_Y343_D338V] | 0.932 | 0.515 | 0.581 | 0.482 | 0.693 | 0.5 | 1.1 | 0.512 | 0.519 | 0.875 | 0.457 | 0.785 | 0.477 | 0.852 | 0.807 | 0.647
VVGMLYVGRLP [LAMA2_Y2886_G2889R] | 1.22 | 0.481 | 0.643 | 0.647 | 0.602 | 0.552 | 1.04 | 0.442 | 0.455 | 0.98 | 0.426 | 0.654 | 0.422 | 0.926 | 0.987 | 0.561
VVLEDYLDIKH [CLCNKB_Y138_N143H] | 1.25 | 0.782 | 0.66 | 1.24 | 1.05 | 0.506 | 1.3 | 0.419 | 0.534 | 0.959 | 0.506 | 0.716 | 0.458 | 0.76 | 0.575 | 0.54
VVQGLYKSMRK [KBTBD2_Y250_P254R] | 0.628 | 0.397 | 0.432 | 0.403 | 0.358 | 0.372 | 0.464 | 0.421 | 0.351 | 0.522 | 0.482 | 0.519 | 0.391 | 0.68 | 0.652 | 0.462
VVTGLYEKPSL [KIR3DS1_Y221] | 1.36 | 4.21 | 7.7 | 0.456 | 0.537 | 13.2 | 0.66 | 2.3 | 6.03 | 0.623 | 9.59 | 17.3 | 1.05 | 0.722 | 0.461 | 0.859
VWALTYCDLHK [KCNH2_Y827_R823W] | 1.28 | 1.75 | 0.76 | 0.823 | 0.967 | 0.594 | 1.32 | 0.605 | 0.632 | 1.49 | 0.507 | 0.809 | 1.2 | 0.884 | 0.791 | 0.655
VYLGAYDHFLP [SLC22A5_Y486_R488H] | 2.28 | 4.38 | 7.25 | 1.6 | 1.62 | 7.24 | 1.25 | 6.16 | 5.47 | 1.39 | 9.45 | 2.69 | 6.2 | 0.755 | 4.29 | 0.757
VYSATYHPDHW [EFCAB12_Y544_P541S] | 1.02 | 1.06 | 1.13 | 1.33 | 1.18 | 4.14 | 1.24 | 6.37 | 5.4 | 1.05 | 10.3 | 2.06 | 5.17 | 0.97 | 0.788 | 0.634
VYSTDYYRVGG [NTRK2_Y706] | 2.94 | 8.68 | 7.13 | 15.3 | 11.8 | 1.22 | 0.902 | 5.13 | 4.61 | 10 | 11 | 1.49 | 4.67 | 0.92 | 0.687 | 0.719
VYYGSYSRPYG [NKAP_Y104] | 1.19 | 1.7 | 2.66 | 2.77 | 2.01 | 0.835 | 0.756 | 9.54 | 8.09 | 2.87 | 6.16 | 8.1 | 7.11 | 1.64 | 1.81 | 2.61
WAKPEYTGGFK | 0.544 | 0.438 | 0.468 | 0.48 | 0.462 | 0.332 | 0.732 | 0.411 | 0.364 | 0.574 | 0.397 | 0.743 | 0.417 | 0.971 | 0.758 | 0.478

Reference: the supplement of paper PMC10065799, “High-throughput profiling of sequence recognition by tyrosine kinases and SH2 domains using bacterial peptide display” (eLife, 2023)
